The record followed here is a protein production outcome set (Wang et al. 2014).

The nature of this series: label from the status in PepcDB records.
Consider “MNKKRMIAMVSTALLVTGCAEVGNAQTVAVENSGQSVQKNIVKSIQSQANPLKTIEPSKPFEDLKPLKKMIGNAQYVGLGENTHGSSEIFTMKFRLVKYLVTEMGFTNFAMEEDWGNGLKLNEYIQTGKGNPREFLKLLYPTDEIIAMIEWMKDYNADPSNKKKIQFIGLDLKALDQGSFNKVIDYVRLHRPDLLAEVEENYKELSSFTGSIQEYMKLTPKLKEKFKANAERVARLLKDENEQANTEIIPSEYIWAKATASAIEKFTTMLLPNDYPSIIKLHEQYLADHAMWAQETFGGKTMVWAHNIHIAKGIIDEKLYPYVAGQFLKERLDNNYVTIGSTTTEGNFTLYSEYNPSTGGKITTDTIPQDVKSFNYTLGKVPYKMFLLDNRHLKGQAEKWVKAKRPLLSIGGQILPNSSVYFDTSLLEQFDIIFHIRKTSPSHIKLEHHHHHH”, for which the protein production result is given as “not failed”.

In the case of “MTEPEGYRRFLQLVAHEFFHLWNVKRIRPKALEQFDYEAENYTPSLWFSEGATSYYDLLLPLRAGLYGVDSFLEALGKDLSRYLTTPGRKVQPLAESSFDAWVKLYRRDAYSDNQQMSYYLKGQLVCWLLDLEIRNHQPDLEHHHHHH”, the protein production entry is recorded as “failed”. The entry for “MNYYGTSMWASDNNTASNSDSSLNLLGILLLASENNKLINNTVLTNLYGVNLMAESTGIGDKTGPSENILASNIISYNLGTGILFDESYGNLIYNNSFDNIWNVEDESLNTWNSSEIGNYWSDYEGEDADGDGVGDTPYLINSHTGSMDYLPVTRSSDFPELEHHHHHH” is “failed”; for “MKNNDLTTYGEYLEKLSPKHGREKVFNDFLQIVVCCLSMGRKEELYFKTIKPYDKTELDLFSQAFAALVMQMDRQPLVDPFGDYFQEFLSNAQNGQFFTPFGVCELMNQLITAPKVSDQPKQGDRRVLDPACGSGRLLLSAAQKDRALTFVGIDISYTCCLMTIINLCLNSLNGEVLHMNALTDQYWHRWLIIVDSVTKIPTVYEVEAGIINQPPACADDLKPLPVTGIIQPVKNMIPANFVRYTPKCLEHHHHHH” it is “failed”; for “MSLKNKFKNFFSLDDEEYEYEYIETDREEIPEEHESKDRTAYQSKAAGKQNVVSLQSVQKSSKVVLSEPRVYAEAQEIADHIKNRRAVVVNLQRIQHDQAKRIVDFLSGTVYALGGDIQRIGADIFLCTPENVDVSGTISELIEEEHQRW” it is “failed”. As for “MPVMQSRIIHLSVEKPWAEVYDFAANPGNMPRWAAGLAGGLEADGEDWIAKGGPLGEVRVNFAPHNEFGVIDHVVTLPDGLKVYNALRVTPNGSGTEVSFTLLRLEGMTDEDFEQDASAITADLEMLKSLLEAD”, the entry is “not failed”; as for “MAQIISNAAVGRTLLILLLCAGVFFFIDFLVPALAALIICFSSWPLYKKLLVKCGGRSAVAASIALVLIVLGLITPLIFVFSYALQEIRIWAEWLVYANQHGAPVPLWIKDLPWVGEWLTLQWQQFIGEPHELGQIVSAISGQNLTGISRWVLQLGWNTLGLLLTLLFMLITLFFLYKDGESVAKQVDVVGERILPARWYRFSRVVPATVSSTVIGMTLIAIGEGIVLGIAYWIAGVPSAVAFGVLTAFMALIPGGAPTMFTLISLYLVGTGDMTAGVGLFLWGSIELFIVDKTLRPNLVGGPIKLPFLPTFFGLIGGVKTMGFVGLFVGPVLMALLVAIWREWLRDDPDTFVMPESLAPETLEADKVQRRLD”, “failed”; as for “MNRLKNMSKYSDAKELASLTLGKKTEYANQYDPSLLQPVPRSLNRNDLHLSATLPFQGCDIWTLYELSWLNQKGLPQVAIGEVSIPATSANLIESKSFKLYLNSYNQTRFASWDEVQTRLVHDLSACAGETVTVNVKSLNEYTAEPIVTMQGECIDDQDIEIANYEFDDALLQGAAQGEEVSEVLHSHLLKSNCLITNQPDWGSVEIAYHGAKMNREALLRYLVSFREHNEFHEQCVERIFTDIMRYCQPQSLTVYARYTRRGGLDINPFRSSHQSAPNHNQRMARQ”, “not failed”.

In the case of “MSDQPRPTVIITGASSGVGLYATKALANRGWHVIMACRNLEKAEQAAKNLQIPPEAYTILHLDLSSLASVRGFVESFRALNRPLRALVCNAAVYYPLLKEPIYSVDGYEITVATNHLGHFLLINLLLEDLKNSPESDKRLVILGTVTANRKELGGKIPIPAPPDLGNLEGFEKGFKKPIAMINGKPFKSGKAYKDSKLCNMLTARELHRRFHESTGIVFNSLYPGCVADTPLFRHHFPLFQKLFPLFQKKITGGYVSQELAGERVAMVVADPEFRQSGVHWSWGLEHHHHHH”, the protein production result is recorded as “not failed”. Consider “MRAAGRDRAERRMPHTWSFDYFYSLPFWAALLAVAAVVRLAGGSPVLRGLALLATSNALLLAIPGFSAADLALVWAVSGVALASARTLSRSAPGSSRARRVVVVGSVVAILAFLALFKYRFLQGLLLGPFAQVLAPRASSGVVNPLVLVGVSYFSFKAIHVVVETYRGTLGRVEALAFLNYMTFFPAFISGPINRFGDFSEQLASASPALGADLRAGGERIVHGLFKKVVLVPLVMPYLLTNQARPLDQATLLDVATGLYAYALYFFFDFAGYTDLAIGGARIIGIRLPENFRQPFFQKNIRDLWTNWHMTLTSWLVDYVYWPTVRALRNLEYLRTRPVLLSVIGMNVTFVSCGIWHGEAPHFVLWGAYHGLGISVLNVYQRQKKRIRAPRIQRWFASRYSRWLGTFATFNFFAAGLALFVLDLGQIRALLRALVG”, for which the protein production result is on record as “failed”. As for “MRTLNKDEHNYIKQIANIHETLLSQVESNYKCTKLSIALRYEMICSRLEHTNDKIYIYENEGQLIAFIWGHFSNEKSMVNIELLYVEPQFRKLGIATQLKIALEKWAKTMNAKRISNTIHKNNLPMISLNKDLGYQVSHVKMYKDID”, the entry is “not failed”; as for “CEGGVDMQQSQVQLQCPLTPPRGLQVSIQGEAVAVRPGEDVLFVVRQEQGDVLTTKYQVDLGDGFKAMYVNLTLTGEPIRHRYESPGIYRVSVRAENTAGHDEAVLFVQV”, “not failed”. As for “ANMHIFENPSALAEALADDVGARLAAAIAARGTASLAVSGGSTPKAFFRSLSRRELDWSKVTVTLVDERFVPPENDRSNHRLVADNLLKDGAAEARFVPLYQAAETAEAAAAIASGRTASLGAPLDVVVLGMGTDGHTASFFPGGTRLEEALDPTTPRGVITMEAEGAGEPRLTFTFSSLQDAGYLVLHIEGSGKKEVLAQAEASGDEAEMPIRAMLRRAASPLQIYWAP”, the entry is “failed”; as for “HRAKIRMEALPEDYERVPGTDMTPEQAYNVSNLDPALQKALDDLSPDFRVAVVLCDVVGMSYDEIADTLGVKMGTVRSRIHRGRSQLRAHLENQATSDEGAQLLLATGR”, “failed”; as for “MRSHNLFGDMCEAFMTKYVMTELRPKTQTLYKSTFNKYVTPYKNIDIERYKYTDWIAYFDWVKKESSSANAGSVLKRFKAVANWAKARGQIKHSHLIDIPIKLEHHHHHH”, “failed”. For the sequence “MGPLVKEKYEEVEQIPLKKPHIVSLIGGFGYREPIFRKVLTTAALDSGINYTLISGPSLDPSKFKEIPKNVQILRFVGDTFPYIRSSDAVIAPGGHSTMMEALSFGTPILSFPDEGHSEQENNAAVIEEEGYGRMLSYSTPPEVILECIREVLEDKKYRDKVKRLQRLASELDGLEHHHHHH”, the protein production entry is listed as “not failed”.

For “MCRNNREDIFNLVPINIISSKFHVKVIGGGKAATIKVKGLLEKGCYVHILSKEFSKEILDIENKNLKLEKGNYYKEFIKDAHLIIIAVNESSLVYKISKDCEKEYKLYLNAANYKEGMVAIPYSRCYENLGFSISSKLGSPRITRAIGEEVSNIIKENDIYSIKVAKIREKAKKEELKDNIIEIISSKEFKNAILEKREYEYLKNLLGEELANSLTLGLK”, the protein production result was “failed”. With “MQYVMSIIGIIAVLGLCFALSNNKSKINFRAIAIMIGFQILIGWFMFATKIGQQIIIFISKVFNKLIKLGTTGVDFLFNGIHRDFVFFLNVLLIIVFFSALLSIFSYLGVLPFIVRVVGGAISKITGLPRVESFHAVNSVFFGSSEALIVIKNDLQHFNKNRMFIICCSAMSSVSASVTASYVMMLDAKYVLAALPLNLFSSLIVCSLLTPVDTKKEDEVIQKFDRTLFGDSFIGAMINGALDGLKVAGIVAALMIAFIGVMEVVNYVISAASGAMGHAVTLQQIFGYVLSPFAFLMGIPTQDIIPAGGIMGTKIVLNEFVAILDLKDTATTLAPRTVGIVTVFLISFASISQIGAIVGTIRALSEKQGSVVSKFGWKMLFASTLASILSATIAGLFI”, the protein production entry is “failed”.

With “MEIKAMFRDVSLSSRNFSEMLSRESKVVAALAAKSPLMAHANWRLKGNSLEEATLYPAFDADGSPSTPALAVLNEEQRGKKHSASHAAIWNGNTRPNEGASMSCHVSDEKVLPDRFSTRLGVPDCYAKSQDLADVVTTIVAAFNPLVVEASPEGYFDKQVFDDKPGVGWMLYLPKVITQQQVPEARALIPVSAKGKQTGTIIVSVTDAPFSVDNPEHVAIANRIEIRLVDQDLLPAYVDI”, the protein production result is “not failed”. The entry for “MNLNIRIKNYWEGEAQGYSEAIEDELNGFERKAWSDLVLEYAPSKDRLDILDIGTGPGFFPIVLSQGGHNVTGIDLTENMIEFARLNLAREGASAKLVTMDCQNLKFPDNCFDLLVCRNLTWTLDDPAKAYKEWHRVLKPGGRVLIFDACWYLHLFDENMKIAYEKKEKEILMKYGHPMHQHKDQVEGDALSRKLFMSDKVRPQWDLDIMLKLGFSKVFADTSVGERILNEQQQDRNSMHPPFLVGGEK” is “failed”; for “MPSSSNSAAFSLDEFAKALDKHDYHAEKGQTVHGKICQHANEGVYVDFGGKSPGFVPVQELGLRPHAEIEDSFPLDSAWDFLVTSEQNDEGQVRLSRRQLQIQQSWENLAELEESGKTLEMVVTGTNKGGVVGDVEGLRGFIPRSHLMHKDNMDALVGQVLKAHILEANQDNNKLVLTQRRIQQAESMGKIAAGNIYEGKVAKIQPYGVFVEIEGVTGLLHVSQVSGTRVDSLNTLFAFGQAISVYVQEIDEYKNRISLSTRILETYPGELVEKFDEMMADAPNRLPLVQSKQNLGDKQEQLEKSLEHHHHHH” it is “failed”; for “MIELRNELPGGEVHAAWHLRYAGHDFFVKCDEREMLRGFTAEADQLELLSRSKTVVVPKVWAVGSDRDYSFLVMDYLSPRPLDAHNAFILGQQLARLHQWSDQPQFGLDFDNALSTTPQPNTWQRRWSTFFAEQRIGWQLELAAEKGITFGNIDAIVEHVQQRLASHQPQPSLLHGDLWSANCALGPDGPYIFDPACYWGDRECDLAMLPLHTDQPPQIYDGYQSVSPLPLDFLDRQPIYQLYTLLNRARLFGGQHLATAQKAMDRLLAVLEHHHHHH” it is “failed”. On to “MIRPARHIAAMSPYALAQLKAPAGKRLISLSQNESLRPPSRRAIEAAARAGDAGHLYPDPDWSALRAALSGLHGIPVEGILCGNGSMELIACLAQAFADERNAILAPAHGYPFFRSAAQMARARFDLAAERDRHVCVDAMLAAVQPDTRIVFVANPGNPTGTRIPRHELVRLREGLPDDTLLVIDEAYGEFADHLGEAMFDLVGRCDTVVLRTFSKAYGLAGMRVGWGLFPPEIARELRKVMNPNNIAVAGQLAATAALADQDYMVETCRQTAALRDGLRARLSKAGYDVPESFSNFVLIRMESPDDARRADEALRAEGVFLRPQGGVGLADSLRVTIGPAEKIDIAAGLLERWAEGKKT”, for which the protein production entry was “failed”.

In the case of “MSNALATLASPADDIAFYEERLRAAMLTGDLKGLETLLADDLAFVDHTGCVKTKQTHLEPYRAGLLKLSRLDLSDAVVRAAGEDGRVVVVRAVTAGVYDGEAFTETLRFTRIWRRTQGPAGWKLVAGHCSVIL”, the protein production result is “not failed”.
